# Experimental data reported in patent US20180021429A1, “ANTICANCER AGENTS OR ANTIMETASTATIC AGENTS USING FSTL1 AND COMBINATION DRUG THEREOF” (PHARMA FOODS INTERNATIONAL CO., LTD., priority 2015, published 2018).
# T1: FSTL1 (Homo sapiens, UniProt Q12841)
# T1 sequence (Q12841 21-308): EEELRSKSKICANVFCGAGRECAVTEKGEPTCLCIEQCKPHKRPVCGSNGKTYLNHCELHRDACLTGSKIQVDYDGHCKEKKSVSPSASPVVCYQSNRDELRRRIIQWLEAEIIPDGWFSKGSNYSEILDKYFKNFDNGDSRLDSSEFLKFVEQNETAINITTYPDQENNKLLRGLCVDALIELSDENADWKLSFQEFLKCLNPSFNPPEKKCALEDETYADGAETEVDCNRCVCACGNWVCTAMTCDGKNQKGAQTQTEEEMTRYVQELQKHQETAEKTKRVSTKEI
# What was measured:
# FSTL1 = target: T1, FSTL1; assay: Action of anti-FSTL1 antibody on Panc1 under FSTL1 stimulation; format: cell-based; design: purchased R&D Systems, Inc. 1694-FN-050; details: Panc1 stimulated with FSTL1 for 3 days; antibody 5 μg/ml
# Procedure: Next, in order to examine how surrounding tumor cells were changed in a cancer microenvironment by receiving FSTL1 produced by Snail/FSTL1-expressing cells, and how the anti-FSTL1 antibody acts thereon, a human pancreatic cancer cell line Panc1 confirmed to express Snail or FSTL1 only slightly was stimulated with FSTL1 for 3 days. The anti-FSTL1 antibody (#6-55, 5 μg/ml) or a control antibody (aHema, 5 μg/ml) was added to this culture system, and subsequent change in cell function was analyzed in the same way as in the preceding paragraph. […] The paper also reports that FSTL1 enhances invasive capacity.
# [1] = test system: human peripheral blood cells; assay: Treg induction inhibition using human peripheral blood cells stimulated with FSTL1 (Example 25); format: cell-based; details: FSTL1 5 ng/ml, antibody 5 μg/mL, 3 days; FIG. 113
# Procedure: Human peripheral blood cells (1×10^6 cells) were stimulated using FSTL1 (5 ng/ml), supplemented with the antibody (5 μg/mL), and cultured for 3 days. The percentage of a Foxp3^+CTLA4^+ cell fraction (Exp. 1) or a CD4^+Foxp3^+CTLA4^+ cell fraction (Exp. 2) in CD4^+ T cells was analyzed as Treg cells by flow cytometry. The flow cytometry conditions are as follows.
# Blood was collected from a healthy person by the addition of a 1/10 amount of 4% sodium citrate, then layered on Ficoll (specific gravity: 1.090), and centrifuged (1500 rpm, 20 min, room temperature), and a cell fraction present in an intermediate layer was used as “PBMCs”. The antibody (5 μg/mL) was added to a system in which these PBMCs (1×10^6 cells) were cultured for 3 days under stimulation with FSTL1 (5 ng/ml) in a 24-well plate. PBMCs recovered from the culture system were incubated at 4° C. for 1 hour using an anti-CD4 antibody (BD Pharmingen/Becton, Dickinson and Company), an anti-CD25 antibody (BD Pharmingen/Becton, Dickinson and Company), and an anti-FoxP3 antibody (eBioscience). Then, the percentage of a Foxp3+CTLA4+ cell fraction (Exp. 1) or a CD4^+Foxp3^+CTLA4^+ cell fraction (Exp. 2) in CD4^+ T cells contained therein was analyzed as Treg cells using a flow cytometer FACScan (Becton, Dickinson and Company). […]
# Panc1-snail+ = assay: Action of anti-FSTL1 antibody on Panc1-snail+ cells forced to express Snail (invasion, CCR2 and RANKL expression); format: cell-based, human; details: antibody 5 μg/ml
# Procedure: Cell invasion was evaluated in the presence of the anti-FSTL1 antibody (#6-55, 5 μg/ml) or a control antibody (aHema, 5 μg/ml) in a chamber using Panc1-snail+, a cell line forced to express Snail, instead of the FSTL1-stimulated tumor cells of the preceding paragraph.
# (§1) In this Example, Panc1-snail+ cells were cultured for 3 days in the presence of the added antibody. Then, the expression of CCR2 and RANKL among molecules known as bone metastasis markers was analyzed by flow cytometry. […] The anti-FSTL1 antibody presumably has inhibitory activity against cell invasion (FIG. 50D).
# as §1, with “82D).” for “50D).”
# [2] = test system: mouse breast cancer 4T1 cells; assay: Mouse breast cancer 4T1 cell-transplanted model (Example 21); format: in vivo; details: BALB/c mice; intraperitoneal 10 mg/kg on days 4 and 7; FIG. 109
# Procedure: (§2) Procedures and methods of the experiment were basically performed according to Examples 17 to 20 under substantially the same conditions as in the bone metastasis model experiments of Examples 17 to 20. Drug efficacy evaluation was conducted using mouse tumor models other than Snail-positive tumor bone metastasis models. The drug efficacy of the anti-FSTL1 antibody was evaluated using cancer-bearing models of BALB/c mice different in strain from the C57BL/6 mice used in the preceding tests. Changes were made as follows. • Day 0: transplantation of tumor cells (5×10^5 cells subcutaneously & 5×10^5 cells intravenously) • Days 4 and 7: intraperitoneal administration of the antibody (10 mg/kg) • Day 14: drug efficacy evaluation (subcutaneous tumor growth)
# The tumor volumes of the mice were measured 4, 7, 11, and 14 days after tumor implantation.
# [3] = test system: mouse colorectal cancer CT26 cell-transplanted models; assay: In vivo colorectal cancer model (Example 20); design: species or system BALB/c mice; details: intraperitoneal 10 mg/kg on days 4 and 7
# Procedure: as §2, with “performed” for “performed according to Examples 17 to 20”, “19 except that bone metastasis was not evaluated. Specifically, drug” for “20. Drug”, “The test was conducted by changing only the amount of tumor implanted, antibody administration timing, and assay timing.” for “Changes were made as follows.”, “intravenously)” for “intravenously) •”, “growth (FIG. 14A) and lung metastasis (FIG. 14B))” for “growth)”
# For lung metastasis, the number of metastatic nodules in the lung was macroscopically counted. The tumor volumes of the mice were measured 7, 11, and 14 days after tumor implantation.
molecule,measurement,setting,value
"#6-55: chicken-mouse chimeric anti-FSTL1 antibody clone; variable regions SEQ ID NO: 783 (light), 785 (heavy) (antibody, V domains shown, mouse constant regions) VH: AVTLDESGGGLQTPGGALSLVCKGSGFTFTSVTMQWVRQAPGKGLEWVASVCSGSSTYYAPAVKGRATISRDNGQSTVRLQLSNLRPEDTGTYYCAKIAGRARWSCTSAAYNIDAWGHGTEVIVSS VL: ASTQPSSVSAIPGETVKITCSGGGNNYGWYQQRSPGSAPVTVIYYNDNRPSNIPSRFSGSTSGSTSTLTITGVQADDEAIYYCGSWDSNTDSGIFGAGTTLTVL",cell growth,FSTL1,the cell growth was reduced
same,invasive capacity enhanced by FSTL1,FSTL1,the action thereof is canceled
same,Treg induction caused by FSTL1 (Foxp3+CTLA4+ fraction in CD4+ T cells),[1],significantly suppressed
same,cell invasion,Panc1-snail+,suppressive activity was able to be confirmed
same,growth of 4T1 subcutaneous tumor,[2],significantly suppressed
same,growth and lung metastasis of CT26 subcutaneous tumor,[3]; day 14,very strongly suppressed the growth and lung metastasis of CT26 subcutaneous tumor
same,solid tumor disappearance (mice),[3]; n=5,three out of the five mice
